Assay results taken from US20260201033A1 (LTZ THERAPEUTICS, published 2026).
Read-outs that look alike come from different tables or passages of the source.

T1: mouse CLEC5A (R&D Systems, Cat #: 8438-CL-050) (mouse, UniProt Q9R007 26-190, limits assumed)
T1 construct: Bought protein; also called recombinant mouse CLEC5A protein
T1 sequence: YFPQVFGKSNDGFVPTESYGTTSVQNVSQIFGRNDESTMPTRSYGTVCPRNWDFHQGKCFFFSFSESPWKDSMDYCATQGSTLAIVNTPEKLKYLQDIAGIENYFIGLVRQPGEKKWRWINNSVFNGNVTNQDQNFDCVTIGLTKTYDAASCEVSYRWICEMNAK

T2: Human CLEC5A His Tag protein (ACROBiosystems, Cat #: CLA-H5243) (human, UniProt Q9NY25 28-188, limits assumed)
T2 construct: Bought protein with a His tag; also called recombinant human CLEC5A protein
T2 sequence: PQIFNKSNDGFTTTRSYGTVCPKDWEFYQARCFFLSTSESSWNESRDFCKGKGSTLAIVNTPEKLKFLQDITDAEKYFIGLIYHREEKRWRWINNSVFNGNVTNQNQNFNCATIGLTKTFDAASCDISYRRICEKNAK

T3: Human C-type lectin domain family 5 member A (CLEC5A), endogenous on human monocytes and M0 macrophages (human, UniProt Q9NY25 1-188)
T3 construct: Endogenous CLEC5A on primary human monocytes and monocyte-derived M0 macrophages; also called MDL-1; M0 macrophages (CLEC5A+) cells
T3 sequence: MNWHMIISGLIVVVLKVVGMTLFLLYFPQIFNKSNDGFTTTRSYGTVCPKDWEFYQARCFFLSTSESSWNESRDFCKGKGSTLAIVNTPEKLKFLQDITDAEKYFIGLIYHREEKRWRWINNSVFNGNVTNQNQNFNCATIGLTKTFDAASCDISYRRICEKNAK

T4: recombinant human CLEC5A, His Tag (ACROBiosystems, Cat #: NC1-H52H4) (human, UniProt Q9NY25 28-188)
T4 construct: Analyte of the BLI assay; Its catalogue number differs from that of the ELISA antigen; also called human CLEC5A (BLI analyte)
T4 sequence: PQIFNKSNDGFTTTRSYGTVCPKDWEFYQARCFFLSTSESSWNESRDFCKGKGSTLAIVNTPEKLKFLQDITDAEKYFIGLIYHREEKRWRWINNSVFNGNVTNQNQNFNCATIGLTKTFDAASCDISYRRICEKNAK


Legend:
[1] = target: T1, mouse CLEC5A (R&D Systems, Cat #: …); assay: ELISA, plate coated with mouse CLEC5A
[2] = target: T2, Human CLEC5A His Tag protein …; assay: ELISA, plate coated with human CLEC5A
[3] = target: T2, Human CLEC5A His Tag protein …; assay: ELISA, plate coated with human CLEC5A; remark: listed apart in the source
[4] = target: T3, Human C-type lectin domain family 5 …; assay: flow cytometry on human M0 macrophages, anti-human IgG PE
[5] = target: T3, Human C-type lectin domain family 5 …; assay: as above; remark: listed apart in the source
[6] = target: T3, Human C-type lectin domain family 5 …; assay: flow cytometry on human M0 macrophages (CLEC5A+), anti-human IgG PE, MFI (PE)
[7] = target: T4, recombinant human CLEC5A, His Tag …; assay: BLI, antibody 10 ug/ml captured on anti-human IgG Fc probe, analyte hCLEC5a; table row hCLEC5a 0.78 nM; all four rows print the same value
[8] = target: T4, recombinant human CLEC5A, His Tag …; assay: BLI, antibody 10 ug/ml captured on anti-human IgG Fc probe, analyte hCLEC5a; table row hCLEC5a 1.56 nM; all four rows print the same value
[9] = target: T4, recombinant human CLEC5A, His Tag …; assay: BLI, antibody 10 ug/ml captured on anti-human IgG Fc probe, analyte hCLEC5a; table row hCLEC5a 3.12 nM; all four rows print the same value
[10] = target: T4, recombinant human CLEC5A, His Tag …; assay: BLI, antibody 10 ug/ml captured on anti-human IgG Fc probe, analyte hCLEC5a; table row hCLEC5a 6.25 nM; all four rows print the same value
EGFR on DLD-1 cells = EGFR on DLD-1 cells (UniProt P00533 25-1210, limits assumed); assay: cell-based or functional assay
[11] = target: T5, human EGFR (ACROBiosystems, Cat #: EGR-H5222) (human, UniProt P00533 25-645); assay: ELISA, plate coated with human EGFR
T5 construct: Bought protein; also called recombinant human EGFR protein

| EC50 [1] | EC50 [2] | EC50 [3] | EC50 [4] | EC50 [5] | EC50 (read off the curve) [6] | Kd [7] | koff [7] | kon [7] | Kd [8] | koff [8] | kon [8] | Kd [9] | koff [9] | kon [9] | Kd [10] | koff [10] | kon [10] | EC50 [11] | Binder | IC50 (nM), DLD-1 cell killing by M0 macrophages (EGFR on DLD-1 cells) |
| --- | --- | --- | --- | --- | --- | --- | --- | --- | --- | --- | --- | --- | --- | --- | --- | --- | --- | --- | --- | --- |
| 0.194 nM | 0.9 nM | 0.158 mg/L | 3.93 nM | 0.49 nM | ~0.8 nM | 0.15 nM | 0.000189 s⁻¹ | 1.26e+06 M⁻¹ s⁻¹ | 0.15 nM | 0.000189 s⁻¹ | 1.26e+06 M⁻¹ s⁻¹ | 0.15 nM | 0.000189 s⁻¹ | 1.26e+06 M⁻¹ s⁻¹ | 0.15 nM | 0.000189 s⁻¹ | 1.26e+06 M⁻¹ s⁻¹ | – | 5C7, chimeric rabbit/human IgG1 anti-CLEC5A antibody (Fc-silenced) (antibody, V domains shown, also called ch5C7; 5C7 Fc-silenced) VH: QSLEESGGDLVKPGASLTLTCTASGFSFSRSSYMCWVRQAPGKGLEWIGCLSVGDGHTYYASWAKGRFTISKTSSTSVTLQMTRLTAADTATYFCARAPSYSGDGGHGYDLWGPGTLVTVSS VL: AIVMTQTPSSKSVPVGDTVTINCQASESVDRNNRLAWFQQKPGQPPKLLIYTTSTLASGVPSRFKGSGSGTHFTLTISDVVPDDAATYYCAGYRGAHTDGDAFGGGTEVVVK | – |
| – | – | 0.081 mg/L | – | 19.5 nM | – | – | – | – | – | – | – | – | – | – | – | – | – | 0.12 mg/L | EGFR2/5C7 (2+2 A) Fc-optimized (bispecific antibody, human IgG1, kappa, also called EGFR/CLEC5A (2+2 A) Fc-optimized antibody with EGFR portion of Nimotuzumab (EGFR2)) heavy: QVQLQQSGAEVKKPGSSVKVSCKASGYTFTNYYIYWVRQAPGQGLEWIGGINPTSGGSNFNEKFKTRVTITADESSTTAYMELSSLRSEDTAFYFCTRQGLWFDSDGRGFDFWGQGTTVTVSSASTKGPSVFPLAPSSKSTSGGTAALGCLVKDYFPEPVTVSWNSGALTSGVHTFPAVLQSSGLYSLSSVVTVPSSSLGTQTYICNVNHKPSNTKVDKKVEPKSCDKTHTCPPCPAPELLAGPSVFLFPPKPKDTLMISRTPEVTCVVVDVSHEDPEVKFNWYVDGVEVHNAKTKPREEQYNSTYRVVSVLTVLHQDWLNGKEYKCKVSNKALPLPEEKTISKAKGQPREPQVYTLPPSRDELTKNQVSLTCLVKGFYPSDIAVEWESNGQPENNYKTTPPVLDSDGSFFLYSKLTVDKSRWQQGNVFSCSVMHEALHNHYTQKSLSLSPGK light: DIQMTQSPSSLSASVGDRVTITCRSSQNIVHSNGNTYLDWYQQTPGKAPKLLIYKVSNRFSGVPSRFSGSGSGTDFTFTISSLQPEDIATYYCFQYSHVPWTFGQGTKLEIKRTVAAPSVFIFPPSDEQLKSGTASVVCLLNNFYPREAKVQWKVDNALQSGNSQESVTEQDSKDSTYSLSSTLTLSKADYEKHKVYACEVTHQGLSSPVTKSFNRGECGGGGSGGGGSGGGGSAIVMTQTPSSKSVPVGDTVTINCQASESVDRNNRLAWFQQKPGQPPKLLIYTTSTLASGVPSRFKGSGSGTHFTLTISDVVPDDAATYYCAGYRGAHTDGDAFGCGTEVVVKGGGGSGGGGSGGGGSGGGGSQSLEESGGDLVKPGASLTLTCTASGFSFSRSSYMCWVRQAPGKCLEWIGCLSVGDGHTYYASWAKGRFTISKTSSTSVTLQMTRLTAADTATYFCARAPSYSGDGGHGYDLWGPGTLVTVSS | 0.00471 nM |
